Stoichiometry N (ParD2 per ParE2 (2:2 heterotetramer)) and stoichiometry N (ParD2 per ParE2 (1:1 heterodimer)) data for 1 substance are collected here from publication PMC10899793, “Toxin release by conditional remodelling of ParDE1 from Mycobacterium tuberculosis leads to gyrase inhibition” (Nucleic Acids Research, 2023).

Experiment [1] addresses ParE2 toxin of Mycobacterium tuberculosis H37Rv (Mycobacterium tuberculosis H37Rv) (UniProt P9WHG5). In words: SEC. A general note: Size exclusion chromatography separates by hydrodynamic size, large species first.
For experiment [2] the target is unchanged. In words: crystal structure.

“ParD2 antitoxin of Mycobacterium tuberculosis H37Rv (natural protein)” yielded a stoichiometry N (ParD2 per ParE2 (2:2 heterotetramer)) in experiment [1] of 1. In experiment [2], the stoichiometry N (ParD2 per ParE2 (1:1 heterodimer)) was 1.
